The test deals with Caki-1 kidney carcinoma xenograft. As to the kind of experiment: Subcutaneous tumor xenograft model. Type of test: in vivo, mouse. How it is done:
Six xenograft models, SK-OV-3, OV-CAR-8, BxPC-3, OV-CAR-5, Caki-1 and NCI-H460 (A to F, respectively) were used to examine the effects of 1B3 on xenograft tumors in athymic nude mice. Mice with established tumors (˜250-300 mm^3) were randomly grouped and treated with 1B3, normal human IgG, or saline by intraperitoneal injection twice weekly (except for BxPC-3 model where the mice were treated three times a week) at the dose indicated. Tumor volumes were measured twice a week and are presented as mean±SEM. *1 indicates the loss of one mouse due to severe illness. 1B3 binds to mouse, but not human, PDGFRβ. Accordingly, the observed responses to treatment result from inhibition of stimulation of host cells.
Antitumor activity of anti-mPDGFRβ antibody in tumor xenograft models. Six human xenograft tumor models, including three ovarian carcinoma (SK-OV-3, OV-CAR-5 and OV-CAR-8), one pancreatic carcinoma (BxPC3), one lung carcinoma (NCI-H460), and one kidney carcinoma (Caki-1), were used to assess the antitumor activity of 1B3 in vivo. […] Tumor sizes and mouse body weight were measured twice a week. Tumor volume was calculated using the formula: π/6×(length×width^2), where length=longest diameter and width=diameter perpendicular to length. The ratio of average tumor volume in the treatment group versus that in the control group (T/C %) was calculated. […]

B1: 1B3: human anti-mouse PDGFRβ antibody from Fab phage display library, human κ/γ1 constant regions; SEQ ID NOS in Table 1 (antibody, listed as Homo sapiens, V domains shown)
VH: QVQLQESGGGLVKPGGSLRLSCAASGFTFSSYSMNWVRQAPGKGLEWVSSISSSSSYIYYADSVKGRFTISRDNSKNTLYLQMNSLRAEDTAVYYCAKGGRPLLVFDFWGQGTLVTVS
VL: EIVMTQSPGTLSLSPGERATLSCRASQSVSSSYLAWYQQKPGQAPRLLIYDASKRATGIPARFSGSGSGTDFTLTISTLESEDSAVYYCQQRGYWPPITFGQGTRLEIKR
modifications: human kappa/gamma1 constant regions
For the molecule B1, the antitumor activity entry (Caki-1, 40 mg/kg three times per week or 60 mg/kg twice weekly) is reported as “failed to show any antitumor activity”. Further, the “Tumor Volume T/C %” value (Caki-1 xenograft, monotherapy) stood at 65%.

These data come from US7740850B2, “PDGFRβ-specific antibodies” (ImClone, LLC, priority 2007, dated 2010).
